In patent publication US20210139548A1 (published 2021):
*1 amine or outer side, *2 acyl side, *3 side chain or, on linkers, in order; H or OH if unused. Side-chain parts run from the residue outwards. The star is where a group is joined. C18 diacid = O=C(O)CCCCCCCCCCCCCCCCC(=O)*; γGlu = O=C(O)[C@H](CCC(=O)[*:2])N[*:1]; Isovaleryl = CC(C)CC(=O)*; AEEA = NCCOCCOCC(=O)O

T1: human neuropeptide Y2 receptor (human, UniProt P49146 1-381)
T1 construct: whole, on cells; also called hNPY2 receptor; hNPY2-R
T1 sequence (looked up): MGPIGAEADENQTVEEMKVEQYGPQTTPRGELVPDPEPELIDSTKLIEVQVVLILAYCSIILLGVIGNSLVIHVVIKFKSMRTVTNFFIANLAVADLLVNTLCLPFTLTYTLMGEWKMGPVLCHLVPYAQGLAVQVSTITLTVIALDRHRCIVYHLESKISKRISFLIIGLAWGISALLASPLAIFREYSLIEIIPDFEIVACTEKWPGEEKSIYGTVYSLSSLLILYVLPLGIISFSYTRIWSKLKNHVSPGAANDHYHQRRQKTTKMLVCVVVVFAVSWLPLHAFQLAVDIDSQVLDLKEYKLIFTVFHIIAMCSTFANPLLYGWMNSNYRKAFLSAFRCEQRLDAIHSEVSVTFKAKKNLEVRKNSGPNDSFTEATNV


Biological target: T1, human neuropeptide Y2 receptor
Experiment: radioligand competition (125I-PYY(1-36)), hNPY2R membranes
Procedure, shortened: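 Commercial human Y2 receptor membranes (0.5 μg protein/well) were incubated with peptide for 2 h at room temperature in 50 mM HEPES, 5 mM MgCl₂, 1 mM CaCl₂, pH 7.4, with 0.2% ovalbumin. Bound radioligand was separated on PEI-soaked GF/C filters and counted by scintillation, and IC₅₀ came from nonlinear sigmoidal regression.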

Binder | Ki [nM]
Isovaleryl-APEK([AEEA-AEEA-γGlu-C18 diacid])PEEDGSPEELQRYYVELRHYYNWLTRQRY-NH2 (SMILES CC(C)CC(=O)N[C@@H](C)C(=O)N1CCC[C@H]1C(=O)N[C@@H](CCC(=O)O)C(=O)N[C@@H](CCCCNC(=O)COCCOCCNC(=O)COCCOCCNC(=O)CC[C@H](NC(=O)CCCCCCCCCCCCCCCCC(=O)O)C(=O)O)C(=O)N1CCC[C@H]1C(=O)N[C@@H](CCC(=O)O)C(=O)N[C@@H](CCC(=O)O)C(=O)N[C@@H](CC(=O)O)C(=O)NCC(=O)N[C@@H](CO)C(=O)N1CCC[C@H]1C(=O)N[C@@H](CCC(=O)O)C(=O)N[C@@H](CCC(=O)O)C(=O)N[C@@H](CC(C)C)C(=O)N[C@@H](CCC(N)=O)C(=O)N[C@@H](CCCNC(=N)N)C(=O)N[C@@H](Cc1ccc(O)cc1)C(=O)N[C@@H](Cc1ccc(O)cc1)C(=O)N[C@H](C(=O)N[C@@H](CCC(=O)O)C(=O)N[C@@H](CC(C)C)C(=O)N[C@@H](CCCNC(=N)N)C(=O)N[C@@H](Cc1c[nH]cn1)C(=O)N[C@@H](Cc1ccc(O)cc1)C(=O)N[C@@H](Cc1ccc(O)cc1)C(=O)N[C@@H](CC(N)=O)C(=O)N[C@@H](Cc1c[nH]c2ccccc12)C(=O)N[C@@H](CC(C)C)C(=O)N[C@H](C(=O)N[C@@H](CCCNC(=N)N)C(=O)N[C@@H](CCC(N)=O)C(=O)N[C@@H](CCCNC(=N)N)C(=O)N[C@@H](Cc1ccc(O)cc1)C(N)=O)[C@@H](C)O)C(C)C) [Compound 182] | 3.45
Isovaleryl-APEK([AEEA-AEEA-γGlu-C18 diacid])PEEEASPEELQRYYVELRHYYNWLTRQRY-NH2 (SMILES CC(C)CC(=O)N[C@@H](C)C(=O)N1CCC[C@H]1C(=O)N[C@@H](CCC(=O)O)C(=O)N[C@@H](CCCCNC(=O)COCCOCCNC(=O)COCCOCCNC(=O)CC[C@H](NC(=O)CCCCCCCCCCCCCCCCC(=O)O)C(=O)O)C(=O)N1CCC[C@H]1C(=O)N[C@@H](CCC(=O)O)C(=O)N[C@@H](CCC(=O)O)C(=O)N[C@@H](CCC(=O)O)C(=O)N[C@@H](C)C(=O)N[C@@H](CO)C(=O)N1CCC[C@H]1C(=O)N[C@@H](CCC(=O)O)C(=O)N[C@@H](CCC(=O)O)C(=O)N[C@@H](CC(C)C)C(=O)N[C@@H](CCC(N)=O)C(=O)N[C@@H](CCCNC(=N)N)C(=O)N[C@@H](Cc1ccc(O)cc1)C(=O)N[C@@H](Cc1ccc(O)cc1)C(=O)N[C@H](C(=O)N[C@@H](CCC(=O)O)C(=O)N[C@@H](CC(C)C)C(=O)N[C@@H](CCCNC(=N)N)C(=O)N[C@@H](Cc1c[nH]cn1)C(=O)N[C@@H](Cc1ccc(O)cc1)C(=O)N[C@@H](Cc1ccc(O)cc1)C(=O)N[C@@H](CC(N)=O)C(=O)N[C@@H](Cc1c[nH]c2ccccc12)C(=O)N[C@@H](CC(C)C)C(=O)N[C@H](C(=O)N[C@@H](CCCNC(=N)N)C(=O)N[C@@H](CCC(N)=O)C(=O)N[C@@H](CCCNC(=N)N)C(=O)N[C@@H](Cc1ccc(O)cc1)C(N)=O)[C@@H](C)O)C(C)C) [Compound 185] | 3.58
Isovaleryl-APEK([AEEA-AEEA-γGlu-C18 diacid])PEEAASPEELQRYYVTLRHYYNWLTRQRY-NH2 (SMILES CC(C)CC(=O)N[C@@H](C)C(=O)N1CCC[C@H]1C(=O)N[C@@H](CCC(=O)O)C(=O)N[C@@H](CCCCNC(=O)COCCOCCNC(=O)COCCOCCNC(=O)CC[C@H](NC(=O)CCCCCCCCCCCCCCCCC(=O)O)C(=O)O)C(=O)N1CCC[C@H]1C(=O)N[C@@H](CCC(=O)O)C(=O)N[C@@H](CCC(=O)O)C(=O)N[C@@H](C)C(=O)N[C@@H](C)C(=O)N[C@@H](CO)C(=O)N1CCC[C@H]1C(=O)N[C@@H](CCC(=O)O)C(=O)N[C@@H](CCC(=O)O)C(=O)N[C@@H](CC(C)C)C(=O)N[C@@H](CCC(N)=O)C(=O)N[C@@H](CCCNC(=N)N)C(=O)N[C@@H](Cc1ccc(O)cc1)C(=O)N[C@@H](Cc1ccc(O)cc1)C(=O)N[C@H](C(=O)N[C@H](C(=O)N[C@@H](CC(C)C)C(=O)N[C@@H](CCCNC(=N)N)C(=O)N[C@@H](Cc1c[nH]cn1)C(=O)N[C@@H](Cc1ccc(O)cc1)C(=O)N[C@@H](Cc1ccc(O)cc1)C(=O)N[C@@H](CC(N)=O)C(=O)N[C@@H](Cc1c[nH]c2ccccc12)C(=O)N[C@@H](CC(C)C)C(=O)N[C@H](C(=O)N[C@@H](CCCNC(=N)N)C(=O)N[C@@H](CCC(N)=O)C(=O)N[C@@H](CCCNC(=N)N)C(=O)N[C@@H](Cc1ccc(O)cc1)C(N)=O)[C@@H](C)O)[C@@H](C)O)C(C)C) [Compound 184] | 2.06
Isovaleryl-APEK([AEEA-AEEA-γGlu-C18 diacid])PEEDASPEELQRYYVSLRHQYNWLTRQRY-NH2 (SMILES CC(C)CC(=O)N[C@@H](C)C(=O)N1CCC[C@H]1C(=O)N[C@@H](CCC(=O)O)C(=O)N[C@@H](CCCCNC(=O)COCCOCCNC(=O)COCCOCCNC(=O)CC[C@H](NC(=O)CCCCCCCCCCCCCCCCC(=O)O)C(=O)O)C(=O)N1CCC[C@H]1C(=O)N[C@@H](CCC(=O)O)C(=O)N[C@@H](CCC(=O)O)C(=O)N[C@@H](CC(=O)O)C(=O)N[C@@H](C)C(=O)N[C@@H](CO)C(=O)N1CCC[C@H]1C(=O)N[C@@H](CCC(=O)O)C(=O)N[C@@H](CCC(=O)O)C(=O)N[C@@H](CC(C)C)C(=O)N[C@@H](CCC(N)=O)C(=O)N[C@@H](CCCNC(=N)N)C(=O)N[C@@H](Cc1ccc(O)cc1)C(=O)N[C@@H](Cc1ccc(O)cc1)C(=O)N[C@H](C(=O)N[C@@H](CO)C(=O)N[C@@H](CC(C)C)C(=O)N[C@@H](CCCNC(=N)N)C(=O)N[C@@H](Cc1c[nH]cn1)C(=O)N[C@@H](CCC(N)=O)C(=O)N[C@@H](Cc1ccc(O)cc1)C(=O)N[C@@H](CC(N)=O)C(=O)N[C@@H](Cc1c[nH]c2ccccc12)C(=O)N[C@@H](CC(C)C)C(=O)N[C@H](C(=O)N[C@@H](CCCNC(=N)N)C(=O)N[C@@H](CCC(N)=O)C(=O)N[C@@H](CCCNC(=N)N)C(=O)N[C@@H](Cc1ccc(O)cc1)C(N)=O)[C@@H](C)O)C(C)C) [Compound 187] | 2.76

These reach a lower Ki. Values come first.

Ki [nM] | Binder
0.67 | Isovaleryl-APEK([AEEA-AEEA-γGlu-C18 diacid])PEADASPEELQRYYVALRHYYNWLTRQRY-NH2 (SMILES CC(C)CC(=O)N[C@@H](C)C(=O)N1CCC[C@H]1C(=O)N[C@@H](CCC(=O)O)C(=O)N[C@@H](CCCCNC(=O)COCCOCCNC(=O)COCCOCCNC(=O)CC[C@H](NC(=O)CCCCCCCCCCCCCCCCC(=O)O)C(=O)O)C(=O)N1CCC[C@H]1C(=O)N[C@@H](CCC(=O)O)C(=O)N[C@@H](C)C(=O)N[C@@H](CC(=O)O)C(=O)N[C@@H](C)C(=O)N[C@@H](CO)C(=O)N1CCC[C@H]1C(=O)N[C@@H](CCC(=O)O)C(=O)N[C@@H](CCC(=O)O)C(=O)N[C@@H](CC(C)C)C(=O)N[C@@H](CCC(N)=O)C(=O)N[C@@H](CCCNC(=N)N)C(=O)N[C@@H](Cc1ccc(O)cc1)C(=O)N[C@@H](Cc1ccc(O)cc1)C(=O)N[C@H](C(=O)N[C@@H](C)C(=O)N[C@@H](CC(C)C)C(=O)N[C@@H](CCCNC(=N)N)C(=O)N[C@@H](Cc1c[nH]cn1)C(=O)N[C@@H](Cc1ccc(O)cc1)C(=O)N[C@@H](Cc1ccc(O)cc1)C(=O)N[C@@H](CC(N)=O)C(=O)N[C@@H](Cc1c[nH]c2ccccc12)C(=O)N[C@@H](CC(C)C)C(=O)N[C@H](C(=O)N[C@@H](CCCNC(=N)N)C(=O)N[C@@H](CCC(N)=O)C(=O)N[C@@H](CCCNC(=N)N)C(=O)N[C@@H](Cc1ccc(O)cc1)C(N)=O)[C@@H](C)O)C(C)C) [Compound 181]
0.7 | Isovaleryl-APEK([AEEA-AEEA-γGlu-C18 diacid])PPEDASPEELQRYYVSLRHYYNWLTRQRY-NH2 (SMILES CC(C)CC(=O)N[C@@H](C)C(=O)N1CCC[C@H]1C(=O)N[C@@H](CCC(=O)O)C(=O)N[C@@H](CCCCNC(=O)COCCOCCNC(=O)COCCOCCNC(=O)CC[C@H](NC(=O)CCCCCCCCCCCCCCCCC(=O)O)C(=O)O)C(=O)N1CCC[C@H]1C(=O)N1CCC[C@H]1C(=O)N[C@@H](CCC(=O)O)C(=O)N[C@@H](CC(=O)O)C(=O)N[C@@H](C)C(=O)N[C@@H](CO)C(=O)N1CCC[C@H]1C(=O)N[C@@H](CCC(=O)O)C(=O)N[C@@H](CCC(=O)O)C(=O)N[C@@H](CC(C)C)C(=O)N[C@@H](CCC(N)=O)C(=O)N[C@@H](CCCNC(=N)N)C(=O)N[C@@H](Cc1ccc(O)cc1)C(=O)N[C@@H](Cc1ccc(O)cc1)C(=O)N[C@H](C(=O)N[C@@H](CO)C(=O)N[C@@H](CC(C)C)C(=O)N[C@@H](CCCNC(=N)N)C(=O)N[C@@H](Cc1c[nH]cn1)C(=O)N[C@@H](Cc1ccc(O)cc1)C(=O)N[C@@H](Cc1ccc(O)cc1)C(=O)N[C@@H](CC(N)=O)C(=O)N[C@@H](Cc1c[nH]c2ccccc12)C(=O)N[C@@H](CC(C)C)C(=O)N[C@H](C(=O)N[C@@H](CCCNC(=N)N)C(=O)N[C@@H](CCC(N)=O)C(=O)N[C@@H](CCCNC(=N)N)C(=O)N[C@@H](Cc1ccc(O)cc1)C(N)=O)[C@@H](C)O)C(C)C) [Compound 183]
